Consider one molecule from PMC9524020 (2022).

Common to all, as to assay: SPR
For orientation: SPR reads the build-up and loss of mass on a sensor chip optically.

The target in experiment [1] is FcγRIIIa-158V, FcγRIIIa-CHO^WT (human).
Experiment [2] deals with FcγRIIIa-158V, FcγRIIIa-Oligomannose (human).
Experiment [3] addresses FcγRIIIa-158V, FcγRIIIa-Hybrid (human).
Experiment [4] has as its target FcγRIIIa-158V, FcγRIIIa-HEK^WT (human).
Experiment [5] addresses FcγRIIIa-158V, FcγRIIIa-Afucosylated (human).
For experiment [6], the target named is FcγRIIIa-158V, FcγRIIIa-G2FS(2-6) (human).
Experiment [7] concerns the target FcγRIIIa-158V, FcγRIIIa-Monoantennae (human).

FcγRIIIa-158V, FcγRIIIa-G2FS(2-6) (human), sequence (chain, as listed by the source): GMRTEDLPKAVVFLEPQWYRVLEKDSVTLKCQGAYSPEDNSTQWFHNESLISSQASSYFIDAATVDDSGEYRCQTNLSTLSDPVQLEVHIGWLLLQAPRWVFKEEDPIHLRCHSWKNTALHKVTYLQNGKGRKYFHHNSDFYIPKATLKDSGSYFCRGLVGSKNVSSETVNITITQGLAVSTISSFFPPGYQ
FcγRIIIa-158V, FcγRIIIa-Hybrid (human), sequence (chain, as listed by the source): as above
FcγRIIIa-158V, FcγRIIIa-Monoantennae (human), sequence (chain, as listed by the source): as above
FcγRIIIa-158V, FcγRIIIa-CHO^WT (human), sequence (chain, as listed by the source): as above
FcγRIIIa-158V, FcγRIIIa-Afucosylated (human), sequence (chain, as listed by the source): as above
FcγRIIIa-158V, FcγRIIIa-Oligomannose (human), sequence (chain, as listed by the source): as above
FcγRIIIa-158V, FcγRIIIa-HEK^WT (human), sequence (chain, as listed by the source): as above

B1: IgG1-CHO^WT (anti-rabies human IgG1 mAb SO57 from the CHO wildtype clone) (antibody)
chain 1: QVQLVQSGAEVKKPGSSVKVSCKASGGTFNRYTVNWVRQAPGQGLEWMGGIIPIFGTANYAQRFQGRLTITADESTSTAYMELSSLRSDDTAVYFCARENLDNSGTYYYFSGWFDPWGQGTLVTVSS
chain 2: QSALTQPRSVSGSPGQSVTISCTGTSSDIGGYNFVSWYQQHPGKAPKLMIYDATKRPSGVPDRFSGSKSGNTASLTISGLQAEDEADYYCCSYAGDYTPGVVFGGGTKLTVL
modifications: N-glycan at Asn297: dominant G0F glycans with small amounts of G1F
The term Kd denotes the concentration at which binding is half-saturated. High values mean weaker binding, low ones tighter binding. B1: the Kd in experiment [1] worked out at 490 nM; in experiment [2] it was 240 nM; in experiment [3], 460 nM; in experiment [4], 440 nM; in experiment [5], 460 nM; in experiment [6], 440 nM. The Kd in experiment [7] was determined as 490 nM.
